Assay results: US6355790, “Inhibition of HIV replication using a mutated transfer RNA primer” (University of Rochester)

B1: tRNAtarD (ssRNA)
RNA: UAGACCAUAGCUCAGUCGGUAGAGCAUCAGACUUUUAAUCUGAGGGUCCAGGGUUCAAGUCCCUGUGGUCUAACCA
B2: tRNALys3 (ssRNA)
RNA: GCCCGGAUAGCUCAGUCGGUAGAGCAUCAGACUUUUAAUCUGAGGGUCCAGGGUUCAAGUCCCUGUUCGGGCGCCA

Assays:
[1] = target: MoMuLV reverse transcriptase (Moloney murine leukemia virus, UniProt P03355 P03355:660-1330); assay: EMSA; did not bind MoMuLV RT
[2] = target: T1, HIV-1 reverse transcriptase (p66/p51) (Human immunodeficiency virus 1, UniProt P04585;P04585 P04585:588-1147,P04585:588-1027); assay: EMSA; affinity similar to tRNALys3; 100-fold excess competes effectively; 6 mM MgCl2, 60 mM NaCl, pH 8.3, 37 C; conditions: Genetics Institute (Cambridge, MA) for polymerase assays; tRNA cloverleaf, acceptor stem restored
[3] = target: T1, HIV-1 reverse transcriptase (p66/p51); assay: EMSA; complex formed; competed by 100-fold excess of itself; 6 mM MgCl2, 60 mM NaCl, 40 mM Tris-HCl pH 8.3, 10 mM DTT, 37 C; conditions: Genetics Institute (Cambridge, MA) for polymerase assays; label: 32P (CTP, internal); tRNA cloverleaf

Row | Binder | binding result [1] | binding result [2] | binding result [3]
1 | B1 | no binding | binds | –
2 | B2 | – | – | binds
